{"source": "patent US20100239556A1", "about": "“PROMOTING ECM PRODUCTION BY FIBROBLAST CELLS AND/OR PROMOTING MIGRATION OF FIBROBLAST CELLS IN A BIOLOGICAL SYSTEM” (TGR BioScience Pty Ltd., priority 2006, published 2010)", "molecules": {"B1": {"name": "transforming growth factor β2 (protein, UniProt P61812 303-414, looked up)", "Transforming growth factor …": "ALDAAYCFRNVQDNCCLRPLYIDFKRDLGWKWIHEPKGYNANFCAGACPYLWSSDTQHSRVLSLYNTINPEASASPCCVSQDLEPLTILYYIGKTPKIEQLSNMIVKSCKCS", "notes": "control agent, fibrogenic factor (R&D Systems)"}, "B2": {"name": "myeloperoxidase (protein, UniProt P05164 165-745, looked up)", "Myeloperoxidase": "VTCPEQDKYRTITGMCNNRRSPTLGASNRAFVRWLPAEYEDGFSLPYGWTPGVKRNGFPVALARAVSNEIVRFPTDQLTPDQERSLMFMQWGQLLDHDLDFTPEPAARASFVTGVNCETSCVQQPPCFPLKIPPNDPRIKNQADCIPFFRSCPACPGSNITIRNQINALTSFVDASMVYGSEEPLARNLRNMSNQLGLLAVNQRFQDNGRALLPFDNLHDDPCLLTNRSARIPCFLAGDTRSSEMPELTSMHTLLLREHNRLATELKSLNPRWDGERLYQEARKIVGAMVQIITYRDYLPLVLGPTAMRKYLPTYRSYNDSVDPRIANVFTNAFRYGHTLIQPFMFRLDNRYQPMEPNPRVPLSRVFFASWRVVLEGGIDPILRGLMATPAKLNRQNQIAVDEIRERLFEQVMRIGLDLPALNMQRSRDHGLPGYNAWRRFCGLPQPETVGQLGTVLRNLKLARKLMEQYGTPNNIDIWMGGVSEPLKRKGRVGPLLACIIGTQFRKLRDGDRFWWENEGVFSMQQRQALAQISLPRIICDNTGITTVSKNNIFMSNSYPRDFVNCSTLPALNLASWREAS"}}, "key": {"[1]": {"test_system": "human foreskin fibroblast cells (HFF)", "test": "Alamar blue viability/growth assay", "assay_type": "cell-based", "conditions": "72 hours", "procedure": "Primary human foreskin fibroblast cells (HFF) were seeded into 96 well plates at a density of 1.2×10^4 cells/well and cultured overnight in 10% fetal bovine serum/Dulbecco's minimum essential media (10% FBS/DMEM) at 37° C. and 5% CO2. The cells were then starved overnight in serum free DMEM and triplicate wells treated for six hours with a range of doses of proteins with peroxidase activity; horse radish peroxidase (HRP; 0.2-50 ug/ml), Arthromyces ramosus peroxidase (ARP; 0.2-50 ug/ml), microperoxidase (MP; 8-500 ug/ml), soy bean peroxidase (SBP; 0.2-100 ug/ml) and lactoperoxidase (LP; 10-310 ug/ml) (all obtained from Sigma-Aldrich). […] After 72 hours the culture media was collected for assessment of secreted, soluble collagen types I, III and VI as well as fibronectin protein and the cells assessed for viability/growth using an alamar blue fluorescent dye assay. […] Briefly, cells were bathed in a 10% Alamar Blue/phosphate-buffered saline (PBS) solution for 30-60 minutes and fluorescence measured at wavelengths of 485 nm excitation and 595 nm emission using a Wallac Victor Multilabel HTS counter. Relative fluorescent units (RFU) for each sample were normalized to control wells (DMEM only treated cells) and data expressed as mean±standard error of the mean (sem) for triplicate wells. […]"}, "HFF cells": {"test_system": "HFF cells", "test": "Collagen I production in the presence of dexamethasone", "assay_type": "cell-based, human", "procedure": "(§1) Primary human foreskin fibroblast cells (HFF) were seeded into 96 well plates at a density of 1.2×10^4 cells/well and cultured overnight in 10% fetal bovine serum/Dulbecco's minimum essential media (10% FBS/DMEM) at 37° C. and 5% CO2. The cells were then starved overnight in serum free DMEM and triplicate wells treated for six hours with a range of doses of proteins with peroxidase activity; horse radish peroxidase (HRP; 0.2-50 ug/ml), Arthromyces ramosus peroxidase (ARP; 0.2-50 ug/ml), microperoxidase (MP; 8-500 ug/ml), soy bean peroxidase (SBP; 0.2-100 ug/ml) and lactoperoxidase (LP; 10-310 ug/ml) (all obtained from Sigma-Aldrich). At the end of the six hour treatment period, the media was aspirated and replaced with fresh serum free DMEM and the cells cultured for a further 72 hours. After 72 hours the culture media was collected for assessment of secreted, soluble collagen types I, III and VI as well as fibronectin protein and the cells assessed for viability/growth using an alamar blue fluorescent dye assay. This assay measures the reduction of oxidized, blue nonfluorescent Alamar Blue reagent to a pink fluorescent dye in the cell medium, such that the higher the amount of reduction, the greater the cell number and/or activity (O'Brien Eur J Biochem 267 2000). Briefly, cells were bathed in a 10% Alamar Blue/phosphate-buffered saline (PBS) solution for 30-60 minutes and fluorescence measured at wavelengths of 485 nm excitation and 595 nm emission using a Wallac Victor Multilabel HTS counter. Relative fluorescent units (RFU) for each sample were normalized to control wells (DMEM only treated cells) and data expressed as mean±standard error of the mean (sem) for triplicate wells. Experiments were repeated at least three times with the combined data from all experiments shown.\nThe amount of soluble collagen types I, III, and VI in HFF conditioned media was measured by a direct coat ELISA method using standard curves constructed from purified human collagen I, III or VI (extracted from human placenta; col I, BD Biosciences; col III and VI, Rocklands Immunochemicals) and fibronectin (extracted from human plasma, Chemicon). Samples and standards (20 μl/well) were added to a 384 well spectraplate (Packard BioScience) and left at room temperature (RT) overnight. […] After a final wash (6×PBS-T), enhancement solution was added for at least 10 minutes and fluorescence measured at excitation 340 nm and emission 615 nm using a Wallac Victor Multilabel HTS counter. The respective ECM concentration of each sample was determined from the standard curve (μg/ml) and normalized to control wells (DMEM only treated cells) with the mean±sem for triplicate wells calculated. […]"}, "[2]": {"test_system": "human foreskin fibroblast cells (HFF cells)", "test": "Repeated stimulation of collagen I production", "assay_type": "cell-based", "conditions": "further 5 days without second stimulation", "procedure": "Experiments were performed to ensure human fibroblast cells could be stimulated to increase ECM protein production by proteins having peroxidase activity after more than one application of the proteins having peroxidase activity. The capacity to respond repeatedly to the proteins having peroxidase activity provides important utility for the generation of ECM in vitro, particularly given that spent culture media needs to be replaced on a regular basis to maintain the viability of the cells. These experiments were performed using human foreskin fibroblast cells (HFF cells) seeded into 96 well plates at a density of 1.2×10^4 cells/well and cultured for one week in 10% fetal bovine serum/Dulbecco's minimum essential media (10% FBS/DMEM) at 37° C. and 5% CO2 (as described in Example 3). The confluent cells were then starved overnight in serum free DMEM and triplicate wells treated for six hours with MP, ARP and LP as representative proteins having peroxidase activity or the control agents transforming growth factor β2 (TGFβ2; R&D Systems) and 10% FBS (JRH BioSciences). After 48 hours, the conditioned media was collected for measurement of collagen I (as a representative ECM protein) and the cells either restimulated for six hours with fresh solutions containing proteins having peroxidase activity or control agents or the media was replaced with fresh serum free DMEM. The cells were cultured for a further 5 days after which the media was collected a second time for the measurement of collagen I. Media was also collected from replicate wells treated at the start of the experiment and left for 7 days (total culture period) for comparison."}, "dermis": {"test_system": "dermis", "test": "Fibrogenic response after intradermal injection", "assay_type": "in vivo, Sprague-Dawley rats", "conditions": "LP 125 μg, TGFβ 0.5 μg, 3 days", "procedure": "Groups of up to 4-8 female Sprague-Dawley rats were lightly anaesthetized and the dorsum shaved. At different sites on their dorsum, each rat received a bolus, intradermal injection of 4 doses of a protein with peroxidase activity (LP, […]; HRP, 1.25-25 μg; SBP, 1.25-25 μg; or micro-peroxidase [MP], 5-125 μg), a vehicle control or TGFβ2 as a positive control. Arthromyces ramosus peroxidase (ARP) was also injected at one dose of 25 μg. Proteins with peroxidase activity were injected in a volume of 50 μl which was sufficient to create a small blister in the skin that resolved within a few minutes. Across the group of rats, each dose of proteins with peroxidase activity was injected into each of the different injection sites to control for any site-related, intra-rat variation. The rats were returned to their cage and left alone for 3 days after which they were killed by CO2 asphyxiation and the skin at the injection sites collected for analysis. The skin at the injection sites was excised using a 6 mm biopsy punch with each piece bisected and fixed in 10% buffered formalin. Fixed tissue was processed for histological assessment by graded dehydration and mounting in paraffin blocks. Blocks were sectioned and sections stained with haematoxylin and eosin (H&E) and Masson's trichrome for qualitative analysis by an experienced pathologist. H&E stained sections were scored for the “fibroblast reaction” (1+-4+) to reflect the number of fibroblast cells identified at the injection site, with 4+ representing the greatest response. H&E and Massons trichrome stained sections were used to evaluate the amount of deposited, collagen-rich extracellular matrix (ECM) that was associated with the fibroblast reaction at each injection site. The collagen-rich ECM deposition was scored 1+-3+ with 3+ representing the greatest response. The scores were combined across the group of rats and statistical analysis performed using a Kruskal-Wallis one way analysis of variance on ranks (ANOVA) followed by post-hoc t-test comparing the response of the proteins with peroxidase activity to the control using Dunn's or Dunnett's method, p<0.05 was considered significant."}, "[3]": {"test_system": "human foreskin fibroblast cells (HFF)", "test": "Soluble collagen I, III and VI in HFF conditioned media (direct coat ELISA)", "assay_type": "cell-based", "conditions": "30 μg/ml, 72 hours", "procedure": "as §1, with “After 72 hours the culture media was collected for assessment of secreted, soluble collagen types I, III and VI as well as fibronectin protein and the cells assessed for viability/growth using an alamar blue fluorescent dye assay.” left out\nThe amount of soluble collagen types I, III, and VI in HFF conditioned media was measured by a direct coat ELISA method using standard curves constructed from purified human collagen I, III or VI (extracted from human placenta; col I, BD Biosciences; col III and VI, Rocklands Immunochemicals) and fibronectin (extracted from human plasma, Chemicon). Samples and standards (20 μl/well) were added to a 384 well spectraplate (Packard BioScience) and left at room temperature (RT) overnight. The spectraplate was then washed 6 times with PBS-tween 0.05% (PBS-T) and 2.5% bovine serum albumin (BSA)/PBS blocking solution added to each well and the plate incubated for 1 hour at RT. The plate was then washed 6 times with PBS-T and primary antibody (0.25 μg/ml rabbit-anti-human-collagen I polyclonal; 2 μg/ml rabbit-anti-human-collagen III polyclonal; 0.25 μg/ml rabbit-anti-human-collagen VI polyclonal; 0.2 μg/ml rabbit-anti-human-fibronectin polyclonal, all from Rockland Immunochemicals) in 5% non-fat dairy milk added to each well for four hours at RT. After washing (6×PBS-T), europium tagged anti-rabbit secondary antibody (0.5 μg/ml 1% BSA/PBS; Wallac Oy) was added for 1 hour at RT. After a final wash (6×PBS-T), enhancement solution was added for at least 10 minutes and fluorescence measured at excitation 340 nm and emission 615 nm using a Wallac Victor Multilabel HTS counter. The respective ECM concentration of each sample was determined from the standard curve (μg/ml) and normalized to control wells (DMEM only treated cells) with the mean±sem for triplicate wells calculated. Experiments were repeated at least three times with the combined data from all experiments shown."}}, "data": [{"molecule": "recombinant ascorbate peroxidase [APX]", "values": [{"measurement": "HFF cell growth or viability", "setting": "[1]", "value": "Neither APX nor MPO had a major effect"}]}, {"molecule": "C[C@@H]1C[C@H]2[C@@H]3CCC4=CC(=O)C=C[C@]4(C)[C@@]3(F)[C@@H](O)C[C@]2(C)[C@@]1(O)C(=O)CO", "note": "[dexamethasone, reference compound]", "values": [{"measurement": "inhibition at 20 µM", "setting": "HFF cells; Homo sapiens, HFF, dexamethasone 20 μM, read-out: inhibition of collagen stimulated by ARP", "value": "~30", "unit": "%"}]}, {"molecule": "B1", "values": [{"measurement": "maximum increase in collagen I levels", "setting": "HFF cells; 1-10 ng/ml, no dexamethasone", "value": "2-2.5 fold"}, {"measurement": "collagen I production when left untreated after the media change at day 2", "setting": "[2]", "value": "maintained level of collagen I production"}, {"measurement": "number of fibroblasts present at the injection site (H&E images)", "setting": "dermis", "value": "profound increase in the number of fibroblasts"}]}, {"molecule": "B2", "values": [{"measurement": "increase in collagen I production", "setting": "[3]", "value": 3, "unit": "fold"}, {"measurement": "HFF cell growth or viability", "setting": "[1]", "value": "Neither APX nor MPO had a major effect"}]}]}
